Assay results as given in patent publication US20230257458A1 (SUNSHINE LAKE PHARMA, published 2023).

T1: IL-11 protein (UniProt P20809 22-199, limits assumed)
T1 construct: also called IL-11 antigen
T1 sequence (looked up): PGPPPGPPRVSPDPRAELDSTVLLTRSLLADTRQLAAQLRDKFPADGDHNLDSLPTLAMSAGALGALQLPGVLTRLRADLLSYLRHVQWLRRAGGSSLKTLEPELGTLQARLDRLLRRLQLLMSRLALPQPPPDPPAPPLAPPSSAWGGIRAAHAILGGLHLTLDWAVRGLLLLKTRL

T2: IL-11-Fc protein (UniProt P20809 22-199, limits assumed)
T2 construct: also called IL-11 recombinant protein with Fc tag; not shown: Fc tag
T2 sequence (looked up): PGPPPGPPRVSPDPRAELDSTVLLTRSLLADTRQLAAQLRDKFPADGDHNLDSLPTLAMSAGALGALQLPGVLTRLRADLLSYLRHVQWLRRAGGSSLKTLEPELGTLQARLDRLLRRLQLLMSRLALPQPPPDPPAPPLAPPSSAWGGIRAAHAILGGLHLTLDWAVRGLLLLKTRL


Assays:
IL-11 protein [1] = biological target: T1, IL-11 protein; assay: SPR (Biacore), IgG captured, IL-11 6.25-400 nM as analyte
Protocol: The measure method included the steps of capturing the humanized antibody at a flow rate of 10 ul/min. […] Finally the chip was regenerated with 10 mM glycine buffer.

IL-11-Fc protein = biological target: T2, IL-11-Fc protein; assay: flow competition: IL-11-Fc + antibody dilutions on membrane-IL-11R CHO cells
Protocol: Then the plate was incubated with 1.5*10\hat{ }5 membrane-IL-11R CHO cells (100 ul/well) for 1 h at room temperature. After incubation, the plate was centrifuged at 1500 rpm for 5 min, washed three times with PBS, and 1:400 diluted flow secondary antibody Goat-anti-Fc-FITC (Abcam, ab98529) was added with 200 ul/well. Then, the plate was incubated at 4° C. for 1 h, centrifuged at 1500 rpm for 5 min, washed three times with PBS, resuspended cells in 180 ul PBS, and detected by flow cytometry.

IL-11 protein [2] = biological target: T1, IL-11 protein; assay: ELISA, monoclonal hybridoma supernatant on IL-11
From the text: (§1) Cell lines with high secretion of specific antibody were selected for expanded culture and cryopreservation.

IL-11 protein [3] = biological target: T1, IL-11 protein; assay: flow competition: IL-11 + antibody on IL-11R cells; lower = more blocking
From the text: as §1

Kd (IL-11 protein [1]) | koff (IL-11 protein [1]) | kon (IL-11 protein [1]) | EC50 (IL-11-Fc protein) | OD450 (IL-11 protein [2]) | FITC Mean (IL-11 protein [3]) | Binder
12 nM | 0.000597 s⁻¹ | 49800 M⁻¹ s⁻¹ | 11.6 µg/mL |  |  | humanized antibody VH1+VL2, full-length (IgG format) (antibody, V domains shown) VH: QVQLVQSGAEVKKPGASVKVSCKASDYTFTNYWLGWVRQAPGQGLEWMGHIYPGGGYTNYNEKFKGRVTMTRDTSTSTVYMELSSLRSEDTAVYYCARVRSGNDALDFWGQGTLVTVSS VL: EIVLTQSPATLSLSPGERATLSCRASESVDEYGISFMNWYQQKPGQAPRLLIYSASNQGSGIPARFSGSGSGTDFTLTISSLEPEDFAVYFCQQSKEVPWTFGGGTKLEIK
10 nM | 0.000545 s⁻¹ | 54300 M⁻¹ s⁻¹ | 12.5 µg/mL |  |  | humanized antibody VH1+VL4, full-length (IgG format) (antibody, V domains shown) VH: QVQLVQSGAEVKKPGASVKVSCKASDYTFTNYWLGWVRQAPGQGLEWMGHIYPGGGYTNYNEKFKGRVTMTRDTSTSTVYMELSSLRSEDTAVYYCARVRSGNDALDFWGQGTLVTVSS VL: EIVLTQSPATLSLSPGERATLSCRASESVDEYGISFMNWFQQKPGQAPRLLIYSASNQGSGIPARFSGSGSGTDFTLTISSLEPEDFAMYFCQQSKEVPWTFGGGTKLEIK
9.03 nM | 0.000474 s⁻¹ | 52600 M⁻¹ s⁻¹ | 10.5 µg/mL |  |  | humanized antibody VH1+VL3, full-length (IgG format) (antibody, V domains shown) VH: QVQLVQSGAEVKKPGASVKVSCKASDYTFTNYWLGWVRQAPGQGLEWMGHIYPGGGYTNYNEKFKGRVTMTRDTSTSTVYMELSSLRSEDTAVYYCARVRSGNDALDFWGQGTLVTVSS VL: EIVLTQSPATLSLSPGERATLSCRASESVDEYGISFMNWFQQKPGQAPRLLIYSASNQGSGIPARFSGSGSGTDFTLTISSLEPEDFAVYFCQQSKEVPWTFGGGTKLEIK
 |  |  |  | 1.6 | 3150 | 3-7C9-1A6 (antibody, human IgG1, kappa, V domains shown) VH: QVQLKQSGPGLVQPSQSLSITCTVSGFSLTNYGVHWVRQSPGKGLEWLGAIWRGGSTDYNAAFMSRLSITKDNSKSQVFFKMNSLQPDDTAIYYCAKNLYGPAAMDYWGQGTSVTVSS VL: DIQMNQSPSSLSASLGDTITITCHANQNIYVWLSWYQQKPGNIPKLLIYEASNLHTGVPSRFSGSGSGTGFTLTISSLQPEDIATYYCQQGQSYPYTFGGGTKLEIKR
 |  |  |  | 1.61 | 15300 | 3-2B5-3D2 (antibody, human IgG1, kappa, V domains shown) VH: QVQLKQSGPGLVLPSQSLSITCTVSGFSLTSYGVHWFRQSPGTGLEWLGVIWSGGITDYNATFIPRLSISKDNSKSQVFFKMNSLQADDTAIYYCARNFDGYYYSIDYWGQGTSVTVSS VL: DIQMTQTTSSLSASLGDRVTISCRASQDISNSLNWYQQKPDGTVKLLIYYTSRLHSGVPSRFTGSGSGTDYSLTISNLEQEDIATYFCQQGNTLPLTFGAGTKLELKR
 |  |  |  | 1.51 | 13600 | 3-15D5-6A1 (antibody, human IgG1, kappa, V domains shown) VH: EVKLLESGGGLVQPGGSLKLSCAASGFDFRRYWMSWVRQAPGKGLEWIGQINPDSSMINYTPSLKDKFIISRDNAKNTLYLQMSEVRSEDTALYYCATYGHHATDSWGQGTSVTVSS VL: DIVLTQSPASLAVSLGQRATISCRASESVDSYGNSFMHWYQQKPGQPPKLLIYRASNLESGIPARFSGSGSRTDFTLTINPVEADDVATYYCQQSNEDPFTFGSGTKLEIKR
